Values of other authors, collected in US20050191360A1, “Particles for inhalation having rapid release properties” (Advanced Inhalation Research, Inc., priority 2004, published 2005).

Conditions: rat, in vivo

Question: Which “time at which the peak PTH level was reached” value does the source give for “PTH34: parathyroid hormone fragment given as dry powder formulation via intratracheal delivery (Patton et al.)” here?
Answer: about 15 minutes
